Reference: patent US20250249076A1, “Composition Comprising a Combination of Lactoferrin and a Sulphated Polysaccharide” (Reckitt Benckiser Health Limited, priority 2022, published 2025)

How the values were obtained:
[1] = test system: Lactobacillus jensenii 25258; experiment: 96-well chequerboard growth assay (optical density over 48 hours), prebiotic effect; type: cell-based; conditions: bacteria exposed to the ingredient alone; FIG. 5
Experimental: A stock solution of 8 mg/mL bovine lactoferrin, was prepared by adding the appropriate amount of sterile MilliQ water to the weighted compound, followed by vortexing and filter-sterilizing. A stock solution of 2 mg/ml of each of the carrageenans (κ-, I-, λ-) was prepared by adding the appropriate amount of sterile MilliQ water to the weighted compound, incubated at 37° C. for 30 minutes, followed by vortexing until clear, and filter-sterilizing. […] The stock solution of lactoferrin was serially diluted in a broth-based media (appropriate for growth of the particular microorganism to be assayed) along the rows of the microtiter plate. The stock solution of carrageenan (κ-, I-, or λ-) was serially diluted in a broth-based media (appropriate for growth of the particular microorganism) along the columns of the microtiter plate. The final volume of media in each well was 0.1 mL. Each well containing lactoferrin and/or carrageenan (κ-, I-, or λ-) was inoculated with log-phase bacteria/yeast at a concentration of 5×10^5 colony forming units (CFU)/well. […] After addition of the relevant microorganism, plates were sealed with optical quality film, and incubated within the plate reader at the appropriate growth temperature for the microorganism being assayed. The optical density (OD) was recorded every 15 minutes for a period of 48 hours to evaluate the microorganism growth and biomass formation.

[2] = test system: Lactobacilli at the level of the vaginal flora; conditions: vaginal use; cited from earlier work

B1: lactoferrin: iron-binding cationic glycoprotein belonging to the family of transferrins; bovine lactoferrin used in the Examples (protein, UniProt P24627 20-708, looked up)
Lactotransferrin: APRKNVRWCTISQPEWFKCRRWQWRMKKLGAPSITCVRRAFALECIRAIAEKKADAVTLDGGMVFEAGRDPYKLRPVAAEIYGTKESPQTHYYAVAVVKKGSNFQLDQLQGRKSCHTGLGRSAGWIIPMGILRPYLSWTESLEPLQGAVAKFFSASCVPCIDRQAYPNLCQLCKGEGENQCACSSREPYFGYSGAFKCLQDGAGDVAFVKETTVFENLPEKADRDQYELLCLNNSRAPVDAFKECHLAQVPSHAVVARSVDGKEDLIWKLLSKAQEKFGKNKSRSFQLFGSPPGQRDLLFKDSALGFLRIPSKVDSALYLGSRYLTTLKNLRETAEEVKARYTRVVWCAVGPEEQKKCQQWSQQSGQNVTCATASTTDDCIVLVLKGEADALNLDGGYIYTAGKCGLVPVLAENRKSSKHSSLDCVLRPTEGYLAVAVVKKANEGLTWNSLKDKKSCHTAVDRTAGWNIPMGLIVNQTGSCAFDEFFSQSCAPGADPKSRLCALCAGDDQGLDKCVPNSKEKYYGYTGAFRCLAEDVGDVAFVKNDTVWENTNGESTADWAKNLNREDFRLLCLDGTRKPVTEAQSCHLAVAPNHAVVSRSDRAAHVKQVLLHQQALFGKNGKNCPDKFCLFKSETKNLLFNDNTECLAKLGGRPTYEEYLGTEYVTAIANLKKCSTSPLLEACAFLTR
viability / phase of the bacterial growth cycle of L. jensenii 25258 [1]: enters the death phase
presence of Lactobacilli at the level of the vaginal flora [2]: able to increase the presence of Lactobacilli
